Results reported in patent US20010016194A1 (priority 1999, published 2001).
Entries after “also recorded” stand apart in the source; their conditions may differ.

Legend:
[1] = target: T1, Raf-1 serine/threonine kinase (Homo sapiens, UniProt P04049); assay: Serine/threonine kinase assay on T-cell proteins retained by FLAG-HMK-IL-2Rβ chain, with or without genistein, Histone H1 substrate; format: biochemical; conditions: genistein 10 μg/ml; T-cell proteins bound to IL-2Rβ chain
T1 construct: endogenous in cells; host or cells: human T-cell lysate (Raf-1); BL-21 pLysS bacteria (IL-2Rβ fusion)
Description: The kinase reaction was initiated by the addition of 1 μCi of […] and 25 μM ATP. After 30 min at 24° C., the reaction was stopped by addition of reducing SDS-PAGE sample buffer and boiling.
(ii) Kinase reaction performed in the presence of Histone-H-1. There is an increased, genistein (tyrosine kinase inhibitor)-independent phosphorylation of Histone-H-1 in T-cell lysates retained on affinity beads coated with FLAG-HMK-IL-2Rβ chain. Control affinity beads coated with proteins isolated from bacteria transformed with vector alone and exposed to T-cell lysates retain only background level of serine/threonine kinase activity. These experiments were repeated a number of times. The results of a representative experiment are shown in FIG. 5 which is a reproduction of an autoradiogram of the products of the kinase reaction performed, in the presence of Histone H-1, on anti-FLAG beads coated with the IL-2Rβ chain construct (WT) and exposed to T-cell lysates in the presence of genistein (lane 3), or in the absence of genistein (lane 2) and then subjected to SDS-PAGE and autoradiography. The control (lane 1) was carried out with the FLAG-HMK vector alone (no insert).

Raf-1 / IL-2Rβ chain = conditions: IL-2 stimulation; cited from earlier work
[2] = target: T2, Raf-1/14-3-3 binding to the IL-2Rb chain (Homo sapiens, UniProt P14784); assay: COS cells co-transfected with IL-2Rβ chain and lck or fyn, immunoprecipitates probed for Raf-1 and 14-3-3; format: cell-based; conditions: co-transfection of COS cells, FIG. 10a
T2 construct: constructs encoding full-length or deletional mutants of the human IL-2Rβ chain; expressed in transfected cells; host or cells: COS cells, pRcCMV-IL-2Rβ, with or without lck or fyn
T2 sequence (P14784 27-551): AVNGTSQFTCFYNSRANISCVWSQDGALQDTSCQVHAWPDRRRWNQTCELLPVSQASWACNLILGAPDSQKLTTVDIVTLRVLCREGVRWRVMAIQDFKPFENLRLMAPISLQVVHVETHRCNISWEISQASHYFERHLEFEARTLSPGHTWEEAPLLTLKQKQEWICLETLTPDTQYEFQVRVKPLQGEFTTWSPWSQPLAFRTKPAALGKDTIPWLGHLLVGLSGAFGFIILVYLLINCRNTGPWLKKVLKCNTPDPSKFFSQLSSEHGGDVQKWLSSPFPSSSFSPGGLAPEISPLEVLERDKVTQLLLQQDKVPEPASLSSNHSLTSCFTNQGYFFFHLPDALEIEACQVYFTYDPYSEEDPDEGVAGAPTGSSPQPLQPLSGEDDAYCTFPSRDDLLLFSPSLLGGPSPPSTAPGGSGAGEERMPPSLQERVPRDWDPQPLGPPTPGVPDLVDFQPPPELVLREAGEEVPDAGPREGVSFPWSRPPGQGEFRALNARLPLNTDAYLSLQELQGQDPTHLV
Text: In order to perform this examination, COS cells were transfected with IL-2Rβ chain alone, or co-transfected with lck or fyn, then […] with anti-IL-2Rβ chain antibody. The immunoprecipitates were then probed for the presence of Raf-1 and 14-3-3 proteins by immunoblotting (all procedures as detailed hereinabove).

[3] = target: T3, IL-2Rβ chain/Raf-1/14-3-3 complexes (Homo sapiens, UniProt P14784); assay: Pre-formed IL-2Rβ chain/(His)6 Raf-1/bacterial 14-3-3 complexes exposed to catalytically active p56lck in vitro; format: biochemical; conditions: enzymatically active kinase, FIG. 10b
T3 construct: construction of plasmid FLAG-HMK-IL-2Rβ chain cytoplasmic domain wild type (FLAG-HMK-IL-2Rβ-WT); made in house; host or cells: bacterial lysates (BL-21 pLysS for the IL-2Rβ fusion, M15 for Raf-1)
T3 sequence (P14784 266-551 limits assumed): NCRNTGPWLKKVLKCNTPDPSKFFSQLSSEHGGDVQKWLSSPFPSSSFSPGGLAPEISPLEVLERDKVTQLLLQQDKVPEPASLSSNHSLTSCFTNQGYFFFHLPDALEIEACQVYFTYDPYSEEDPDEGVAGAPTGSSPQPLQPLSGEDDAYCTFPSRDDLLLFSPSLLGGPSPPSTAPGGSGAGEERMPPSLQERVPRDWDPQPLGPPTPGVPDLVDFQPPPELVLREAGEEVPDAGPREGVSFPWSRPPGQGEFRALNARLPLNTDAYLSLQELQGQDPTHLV
Description: The results of this examination are shown in FIG. 10a which is a reproduction of the above immunoblot. […] In addition, a study of the dissociation of pre-formed IL-2Rβ chain/Raf-1/14-3-3 complexes by enzymatically active p56^lck was also carried out. Pre-formed IL-2Rβ chain/(His)6 Raf-1/bacterial 14-3-3 complexes were prepared (see above in respect of FIGS. a-c), exposed to catalytically active p56^lck (Upstate Biotechnology), washed and eluted with FLAG peptide. Eluates were separated on SDS-PAGE and tested for the presence of Raf-1 proteins. The results of this study are shown in FIG. 10b which is a reproduction of an SDS-PAGE gel in which is depicted the Raf-1 bands. […] Since there is no indication that p56^lck interacts with Ras-like sequence of the IL-2Rβ chain, it seems that binding of Raf-1 and p56^lck to distinct subdomains of the same A-region, co-localize kinase and its substrate for fast enzymatic reaction occurring during IL-2R activation.

T1 sequence (P04049 whole entry, the tested form may be a part): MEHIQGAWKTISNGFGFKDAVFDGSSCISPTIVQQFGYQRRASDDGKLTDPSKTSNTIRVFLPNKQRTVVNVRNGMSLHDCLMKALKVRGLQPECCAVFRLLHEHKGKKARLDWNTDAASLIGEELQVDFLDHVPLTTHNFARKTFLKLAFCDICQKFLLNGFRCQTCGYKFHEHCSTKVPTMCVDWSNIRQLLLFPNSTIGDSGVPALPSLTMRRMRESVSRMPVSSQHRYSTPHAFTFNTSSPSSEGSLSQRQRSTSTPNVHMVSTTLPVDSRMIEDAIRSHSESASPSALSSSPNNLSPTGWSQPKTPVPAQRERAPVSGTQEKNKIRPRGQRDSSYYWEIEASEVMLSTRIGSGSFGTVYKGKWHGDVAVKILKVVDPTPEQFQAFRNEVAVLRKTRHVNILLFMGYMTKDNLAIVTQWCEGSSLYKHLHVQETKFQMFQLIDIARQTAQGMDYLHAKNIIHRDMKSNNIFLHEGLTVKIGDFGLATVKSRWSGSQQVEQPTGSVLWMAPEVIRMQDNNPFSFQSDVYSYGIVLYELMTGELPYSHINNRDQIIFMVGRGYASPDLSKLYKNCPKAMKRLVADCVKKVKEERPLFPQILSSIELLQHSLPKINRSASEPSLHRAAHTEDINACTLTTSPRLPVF

Row | Compound | effect of genistein on serine/threonine kinase activity (Histone H1 phosphorylation) [1] | dissociation of enzymatically active Raf-1 from the IL-2Rβ chain (Raf-1 / IL-2Rβ chain) | effect on Raf-1/14-3-3 binding to the IL-2Rb chain [2] | dissociation of pre-formed IL-2Rβ chain/Raf-1/14-3-3 complexes [3]
1 | O=c1c(-c2ccc(O)cc2)coc2cc(O)cc(O)c12 [genistein] | not inhibited; also recorded: independent | completely abolished |  | 
2 | p56^lck: src-family protein tyrosine kinase; catalytically active enzyme from Upstate Biotechnology or co-transfected in COS cells |  |  | abrogation of Raf-1/14-3-3 binding | dissociation
3 | p59^fyn: another src-like kinase, co-transfected in COS cells |  |  | did not cause this dissociation | 
